Experiment: label from the status in PepcDB records
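Note: failed if final PepcDB status was selected cloned or expressed and not failed if soluble or beyond.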

| Sequence | protein production |
| --- | --- |
| MITNAFNEYKNEYAFDNVYGHLIEILKRNLDISTESGVVHLDIGCGYGAIAEHITGEVGRVYVGIDANKSGLKSLKDRGFETHEHFLESQEDALSFFERVIGDRKLGSISMLDTLEHLPNGLSILKAIATLASKHSAMVAISVPNIQHRDIGFKLALGSIAYTDAGLLDHTHVMMYDYDHLDRVLRHAGLRICDQNHVRVNHSDQFFPRDHPVLQNATTIRTFLKYVRANVNDQDQINQFVVAALPCEPITGPTFEAVRDVDRPFLSIVTRTQGKRIHTLVEYFTCLAGQVCRDFEVFVVGHRLSLERQIAIEQVIEDLPLWLRDKTKLIRVDHGNRTHPLNVGFAQANGRYIAIHDDDDIPMGHWVDSFRKLAIENDGALLRCVSSLQHVETVSLRGRDGVRSIGKTGPFPSEFDFIQHLSGNYSPNNTLAFPRGVFHHLNMRFDENLTTTEDWDYIMRVASVVGVASSPEITGTYQWWEKGNSLAMHTDNEWALNKAWIQEKLDARPILIPAGTVRKILSLWEHANNVATQLDAVSHRNAIIEGQLGAMSQYDIDVQAQMKAISDHVNFLKSEIDRNRNEAVDQQYLLREIGDIIDSTSWKLSAPMRWPKRILGARSSRLTDHLGSSVQQLQETKRRLLSSRSWRATRPMRAVARLFKVHPI | failed |
| MTLIPTDLSASRLSDAVRDPNREIAASSRVIDLSVGIVVCIPCFRRPQHLRLTLESLASQRTPRSFAVVMVENDAARRESAPVAAEYLADGRLQGICLVEQRQGNCQAINAAFETAQALFPAATRFLMIDDDEIASPDWLELMVRTAEATGADVVGGPVLPDFDDDSQPWLSRHPAFRPAYDYSGAVPLIYGCGNCLITRAAFDRLGSPAFDLRFNFLGGGDCDFFVRCRDAGMTFHWTTEAVITETVPQSRTSLGWIAKRGLRIGAINYRVQHKAAQGAAARVRVFAQMLGRLPLSLLRAARLLATSKAVVAMHPVMVALGSLLAALGIEPKPYEASKIVS | failed |
| MPLFKFAIDVQYRSNVRDPRGETIERVLREEKGLPVKKLRLGKSIHLEVEAENKEKAYEIVKKACEELLVNPVVEEYEVREL | not failed |
| MKHIHIIGIGGTFMGGIAAIAKEAGFKVSGCDAKMYPPMSTQLEALGIGVHEGFDAAQLEEFQADIYVIGNVARRGMDVVEAILNRGLPYISGPQWLAENVLHHHWVLGVAGTHGKTTTASMLAWVLEYAGLAPGFLIGGVPENFGVSARLPQTPRQDPNSKSPFFVIEADEYDTAFFDKRSKFVHYRPRTAVLNNLEFDHADIFADLGAIQTQFHHLVRTVPSEGLIVCNGQQQSLQDTLDKGCWTPVEKFGTGHGWQIGEVNADGSFDVLLDGKKAGHVAWDLMGGHNRMNALAVIAAARHAGVDVQTACEALGAFKNVKRRMEIKGTANGITVYDDFAHHPTAIETTIQGLRQRVGGARILAVLEPRSNTMKLGTMKSALPASLKEADQVFCYAGGADWDVAEALAPLGCRLRVGKDFDTFVAEIVKNARTGDHILVMSNGGFGGIHTKLLDALR | not failed |
| MANAENNSVSTRSSELYREISQMDDEIMKLVEQINQPIGRPDFGAIEEARKKLTDKRMKLEELSKRMKEVIKEMEETPKR | failed |
| MDKESVDTLFGMGLTAYQAKDYTKAIHALEHLREHDPSYTTLYSYLAKSYEENGEPEKAIAVLRDGLTQDEFNKEMFLEAGKLAVTLRLPEEAEEFYRQAIVLDEEFSEAIMQLNKLLLAKENYEGVIELVEGLGEEVISEPQIFWDVSVAYQETEQYNKAKANYELAYPHFTNNPTFLKEYGLFLREEGEHAKSQEVLRSYLELEPLEHHHHHH | not failed |
| MGHHHHHHSHMLVDNLYRVVSNQKDAAVIRVHLEVNASHEIFKGHFPEVPVLPGVCMVQCIKELIEESLLVKTQIDKGDMIKFLSMLNPVESNSIQAEISIKEKTETRIVFQATLKNEDRFLLKYSGSLVVLN | failed |
| MKPSLIYMYNINKKQIIISLLSFIFVVAVAFVSLGNYIKQESGEVRQTIIVAFVILVYITFLAMIVIQAVSAFGKMTESTLFRLTSISGKKIVLAILLYAVIYLLIFELIGSIFLYGISMKIIKGTELYEVLFTQSVFNPLKHLFSTMLYVFNLSSILLVLLFSVASVKVFSLKKKKLKYPMVFFLFLLVTKLLGTIYGMLGGLAPAAPLIKKLVYIDESSGADVFLYPEKLMNLYSLSFSIGIFILLVYITGRIIDKKLEV | failed |
| MSTAVASAPRSGQVLADLLPASRVRDAALVLGGAALTGLAAQISLPVPGSPVPVTGQTFAALLVGTALGAGRGFLSLAVYALVGMAGVPWFAGGGSGAAAPSFGYILGMLLAATVVGALARRGADRSVLRTAGAMLLGEAIIYAIGVPYLAFATGMSLTAAIAAGLTPFLIGDALKAALAMGVLPTAWKFLNR | failed |
| MFYRLLFASLWYILPAYVANASACIFGGGTPVDLGKNFIDGRRLIGNGVTYRGCIFGILCGTLVGLIQGILVDFNIFNSLDFYGTVLDHVILAFFLSVGAIVGDAVGSFIKRRLNIERGKPAPLLDQLDFVIGALAFGYIVAPIPYEMIIIICLFTVFVHLLGNIIAYKLGIKDVWW | failed |
| MPVKLAQALANPLFPALDSALRSGRHIGLDELDNHAFLMDFQEYLEEFYARYNVELIRAPEGFFYLRPRSTTLIPRSVLSELDMMVGKILCYLYLSPERLANEGIFTQQELYDELLTLADEAKLLKLVNNRSTGSDVDRQKLQEKVRSSLNRLRRLGMVWFMGHDSSKFRITESVFRFGADVRAGDDPREAQRRLIRDGEAMPIENHLQLNDETEENQPDSGEEE | failed |
| GSGATSAAGKPQETFLDFNESPYGPSAKARAAMQRAAALCGRYDYDAQDALVGLFAKQNGIPAECVHAYCGSRQPLQYAVAAFTGKERGLVIADPSYDSVVGAAQAQGAKVAAVPLDAEAAHDIERMLAAAQRDAGLIYICNPNNPTGTLTPHERIVRAIERKPERSVVLVDEAYIHFSDAPSVVGLAVQRQDVLVLRTFSKLYGMAGARLGLAIGHPQLLARLERFGGHNVVPSPTAHAGLESLRDDDLVPRRKQQNAEVRERTIAWLRQQGFRCTASQSNCFMVDMRRPAELVIAELEKQRVHVGRPWASWPNWVRVTVGSEEEMQAFR | failed |
| MSSERQLAGRIVVPGEPLPEEVEASPPYVIDYKGVKRATVVGLLREKGDGGGRAFVKLKEIYVPQAGDVVIGLIQSVGIMNWFVDINSPYVAVLSVQDFLGRPFNPAVDDMQSLLKVGDYIKAKVVAFDKTRSPLLTVQGEGLGRIVRGKIVEISPAKVPRVIGRKMSMLKTLEEKTECKIFVARNGRIHLECPNEDLEAIAVMAIKIIDEEAYTSGLTKRIIKFIEEERRIREV | not failed |
| MKILFIKLSALGDVLASTPLFASTKAEHPDWFVGHVVARPYADATRNNAHVDAQFVVDSPLSKGLAEKIGVAVGIWRYVLRERYDIAVVLHRSFVLQLICRLALVKKVVGYEGPFSFILNHSIPFSMRGNRSNLELRLLKSAGIIRDEKKKLRFDIDFGNVDPSRLRALPDAFIAVNAGGGNADAHAANKLWPAEHYGALIKQLPLPAVMLGHGAADERIRDRVAATGATFVDLIGKTNLDETAVVLRRSSLYVGNDSALLYLAASLGVTTIGIYGPTDPAAFSPLGANNLWLSGKTSCAPCYSSFDGIGGRMYTCADNICMKAVTVESVSERIHAALHQDQNLQVAGPDVVGSGQGGAASEAGDRARAHARAGHQAVGDGGFAVPVSRRPPVGARVSGRDD | failed |
| MSAEPRLHTLRVARTARVATLGTPATAGSWWVVLHGYGQLAADFVSAFHPLVAPDRCVVAPEGLSRFYVDGMAQHEQVGASWMTREAREAEVSDYVDALDATVRHLADDTPPSLHVLGFSQGAVTASRWALWGDTAVDRLVLWGGAPAHDLDLAEHAASLRALDLTLVAGTEDPYVTDDRWAAIRRRLQAHDIPVTTRTFEGGHRIDPAPLRALVAPA | failed |
| MKVLTDLQKRIFAIVKKENGKPIPPGIVVRMMENQAGFPGKQQVYRAIDDLLEWHIFRKSGGATNQLLINYELADPVLDQKFQGILNLGNKNTGFVRPLDDDKTVYYIHFSNLAGALDGDLVEFCPLDKPQVGDKFDAAVLKIVKRSRVLYAGNFLIEYSDFGQEFRIVADNPRFYLTPIVNKASVPAELESNTKVAFQIDEYDPANNLCKVSIQQILGNNDEPLINLKAIMLDHSIVFEDNDVVEQQAAKLQFDEKEQSKPYRKDLTELAFVTIDPATSKDLDDAIYVKRTDKGFVLYVAIADVAYYVQRNSELDIEARHKTSSIYLPGYYVVPMLPERLSNELCSLNPNEKRYVVVCELNFDHEARLNFSEVYPATIVSQRRFAYSEVNDWLEDSDALKDESATVLESLKAGFTLSELIAEQRKKKGTIDLSHSETEVVVDQNYYPIEIRFLTHGKAETMIENLMVVANEAVAWTLTNHKVHLPYRVHPRPSKKKLQMLLENIVELKITQPNFVLDTVTSTQIAAWLKENKDNPSYDIFVILLLRTLGKAFYIVNPLIHFSIGSHHYTHFTSPIRRYADLTVHRLLWMNLFTPERFTDTEREQLNAELEQICETINDTEIKINGCERTANDYLTTLYLSKQVGQTFHGFISAITSFGIFMRMDENNFDGLIKITSIPEDFFVFEKDRMVLRGKRTNKVFRIGDRLTAKLTEIDTVQKRAILTLV | failed |
| HYIFPHARIKITRDSKDHTVSGNGLGIRIVGGKEIPGHSGEIGAYIAKILPGGSAEQTGKLMEGMQVLEWNGIPLTSKTYEEVQSIISQQSGEAEICVRLDLNM | not failed |
| MSMNQFRTMEEEKQDGGELFHTIEVAKVDRNNVSQPPPAATAALLEVPGDELNLIPPLNFSMVDNGIFRSGFPDSANFSFIKTLGLRSIISLCPEPYPENNMQFLKSNGISLFQFGIEGSKSKEPFVDILDQKIREALKVLLDEKNHPLLIHCKRGKHRTGCLVGCMRKLQKWCITSILDEYKRFAAAKARVSDQRFLESFDVSGLKHTPMSFSCSNR | failed |
| MASPNTTQPEIILSEEKKASLTTQSTSNNTNDGNILEEQKTLTSQQQPTPVPNTERTEDNVIENLKKTDLSNKDENTTISINTSTNTNINSNTNSNTNTNINSNINTDVNTNINTDINTNTNSNTNSNTNTNINTNANTNTNTNEKAQDEKFQYNGDVSKAFLSPPVFHLTEIMHDERCFKKTKGHVTVEINGDICIYGGMLHDKCVENFIRYVPGINLFEKMRLNSNDIVPRAFCSGNVITEDNKKNIIIFGGINEKDEIVDETYKFDFQAKKWELIGNKICPRARYKHASFSFNDFLYIHGGLDVNNSLLADMWCFSKNSWTPIKQIDRIPEPRYAHSLIFSFYGNAKLVFLFGGNKKGYNAALGDTWIFNINTNRWKEITNSSGSKPCARWGHSSQLFDNEWMIIYGGITNGWIDNYALSDMYALNIFTFSWFEVDISTSKNFDRGYYGSLCFLPYKKSLFVFGGTDNSEDHSDVFSMSPLVTYVSYKTLTGKIEQLNTRMKNINETSSENENMNISEFETKITELKEDINKINFMMKDFESKFCGKIKKLEKLNEQCEKLLSKNINTEELQNLEQRIRKLETSNVLMKHDSI | failed |
| MEPIVFNGYHTLITATLVLLVGRFFVNKIKVLQDFNIPEAVAGGLIAAVAILCLYNWFGVSLQFEQSLQNAFMLAFFSSVGLSADFSRLKQGGMPLVIFLVVVSLYIIIQNVIGVGLASALGLDPMIGLLTGSITLTGGHGTGAAWAKIFSEEYNITGVMEMAMASATFGLVAGGLIGGPIARRLINKMKKDRSQQITKRVDTSAEQYDGSTFEDHDSIRYITASSTIETMALFAACLGFSSIIVNTFPDISLPQFVWALGFGVILRNVLTKVFKFDMFDRAIDVFGNASLSMFLAMALMSIKLWELTGLAGPMLIILVVQTLVMILYGYFVTYRVMGKDYDAAILTAGHCGFGLGATPTAVANMQSVTEKFGSSHKAFLIVPLVGAFFVDILNLAVITSFVDFLR | failed |
| MADFTLSKSLFSGKYRNASSTPGNIAYALFVLFCFWAGAQLLNLLVHAPGVYERLMQVQETGRPRVEIGLGVGTIFGLIPFLVGCLIFAVVALWLHWRHRRQ | failed |
| VLMDEGAVLTLAADLSSATLDISKQWSNVFNILRENDFEPKFLCEVKLAFKCDGEIKTFSDLQSLRKFASQKSSMKELLKDVLPQKE | not failed |
